In IntAct's records for PubMed 25751138:

B1: DASH complex subunit DAM1 (Saccharomyces cerevisiae), P53267 (parent)
chain: MSEDKAKLGTTRSATEYRLSIGSAPTSRRSSMGESSSLMKFADQEGLTSSVGEYNENTIQQLLLPKIRELSDSIITLDSNFTRLNFIHESLADLNESLGSLLYGIMSNSWCVEFSQAPHDIQDDLIAIKQLKSLEDEKNNLVMELSNMERGIKRKKDEQGENDLAKASQNKQFNQPLFPSSQVRKYRSYDNRDKRKPSKIGNNLQVENEEDYEDDTSSEASFVLNPTNIGMSKSSQGHVTKTTRLNNNTNSKLRRKSILHTIRNSIASGADLPIENDNVVNLGDLHPNNRISLGSGAARVVNGPVTKNRNSMFSGRAERKPTESRHSVAKKTEKKINTRPPFR
B2: DASH complex subunit DAM1 (Saccharomyces cerevisiae), P53267 (parent)
chain: B1 chain
partner: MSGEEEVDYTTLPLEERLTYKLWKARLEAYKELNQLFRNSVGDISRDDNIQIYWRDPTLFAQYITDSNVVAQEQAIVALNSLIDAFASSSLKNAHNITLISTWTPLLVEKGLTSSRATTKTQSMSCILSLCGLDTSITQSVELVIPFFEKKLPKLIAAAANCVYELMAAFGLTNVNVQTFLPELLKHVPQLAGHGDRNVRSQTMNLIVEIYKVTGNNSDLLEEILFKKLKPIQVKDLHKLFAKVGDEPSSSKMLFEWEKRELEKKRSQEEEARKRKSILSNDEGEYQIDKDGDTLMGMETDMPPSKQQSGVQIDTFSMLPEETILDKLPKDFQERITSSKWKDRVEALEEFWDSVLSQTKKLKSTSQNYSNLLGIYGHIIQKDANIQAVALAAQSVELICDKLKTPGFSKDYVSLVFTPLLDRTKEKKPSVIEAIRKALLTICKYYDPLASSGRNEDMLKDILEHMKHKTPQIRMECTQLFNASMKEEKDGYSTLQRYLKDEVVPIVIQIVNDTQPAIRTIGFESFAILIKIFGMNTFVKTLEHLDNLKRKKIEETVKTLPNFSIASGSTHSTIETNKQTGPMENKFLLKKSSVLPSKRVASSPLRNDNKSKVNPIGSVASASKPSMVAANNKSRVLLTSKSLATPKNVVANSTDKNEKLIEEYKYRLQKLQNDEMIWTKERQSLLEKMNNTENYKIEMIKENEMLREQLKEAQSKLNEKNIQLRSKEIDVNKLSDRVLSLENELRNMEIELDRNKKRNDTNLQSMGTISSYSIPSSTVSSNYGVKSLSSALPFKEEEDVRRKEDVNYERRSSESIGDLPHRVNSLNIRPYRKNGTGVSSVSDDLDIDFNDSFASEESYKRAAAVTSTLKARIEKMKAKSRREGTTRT

Variants of: B1
Conditions: with ndc80_yeast NDC80, P40460
ndc80_yeast NDC80, P40460, sequence (P40460 whole entry): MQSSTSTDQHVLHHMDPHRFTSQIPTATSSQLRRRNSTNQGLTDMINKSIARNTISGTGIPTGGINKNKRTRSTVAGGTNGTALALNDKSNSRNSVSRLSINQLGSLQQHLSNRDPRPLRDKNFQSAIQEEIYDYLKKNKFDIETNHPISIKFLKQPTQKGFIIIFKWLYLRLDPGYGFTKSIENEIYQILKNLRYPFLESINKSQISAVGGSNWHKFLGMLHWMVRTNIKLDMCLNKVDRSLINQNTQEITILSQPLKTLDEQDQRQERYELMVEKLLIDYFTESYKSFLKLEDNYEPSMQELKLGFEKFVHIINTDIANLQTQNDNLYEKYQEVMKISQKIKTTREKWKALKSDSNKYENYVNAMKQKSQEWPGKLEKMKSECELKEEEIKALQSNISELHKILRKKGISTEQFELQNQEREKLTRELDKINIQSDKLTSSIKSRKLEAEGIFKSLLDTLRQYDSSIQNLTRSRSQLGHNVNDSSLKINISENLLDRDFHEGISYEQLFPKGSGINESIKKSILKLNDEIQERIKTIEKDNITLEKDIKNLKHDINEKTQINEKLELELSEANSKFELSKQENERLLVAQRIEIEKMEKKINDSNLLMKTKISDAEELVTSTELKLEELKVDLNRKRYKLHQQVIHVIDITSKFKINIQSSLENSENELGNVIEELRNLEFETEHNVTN
In the case of MSEDKAKLGTTRSATEYRLSIGSAPTSRRSSMGESSSLMKFADQEGLTSSVGEYNENTIQQLLLPKIRELSDSIITLDSNFTRLNFIHESLADLNESLGSLLYGIMSNSWCVEFSQAPHDIQDDLIAIKQLKSLEDEKNNLVMELSNMERGIKRKKDEQGENDLAKASQNKQFNQPLFPSSQVRKYRSYDNRDKRKPSKIGNNLQVENEEDYEDDTSSEASFVLNPTNIGMSKSSQGHVTKTTRLNNNTNSKLRRKDILHTIRNDIASGADLPIENDNVVNLGDLHPNNRIDLGSGAARVVNGPVTKNRNSMFSGRAERKPTESRHDVAKKTEKKINTRPPFR [S257D;S265D;S292D;S327D], the “effect of a mutation on the interaction” value is reported as “decreasing interaction strength”.

Variants of: B2
Conditions: with stu2_yeast STU2, P46675
In the case of MSEDKAKLGTTRSATEYRLSIGSAPTSRRSSMGESSSLMKFADQEGLTSSVGEYNENTIQQLLLPKIRELSDSIITLDSNFTRLNFIHESLADLNESLGSLLYGIMSNSWCVEFSQAPHDIQDDLIAIKQLKSLEDEKNNLVMELSNMERGIKRKKDEQGENDLAKASQNKQFNQPLFPSSQVRKYRSYDNRDKRKPSKIGNNLQVENEEDYEDDTSSEASFVLNPTNIGMSKSSQGHVTKTTRLNNNTNSKLRRKDILHTIRNDIASGADLPIENDNVVNLGDLHPNNRIDLGSGAARVVNGPVTKNRNSMFSGRAERKPTESRHDVAKKTEKKINTRPPFR [S257D;S265D;S292D;S327D], the “effect of a mutation on the interaction” value is reported as “disrupting interaction strength”.
